T1: Erb1/Ytm1 complex (Thermochaetoides thermophila, UniProt G0SFB5)
T1 construct: 6xHis; made in house; host or cells: Ytm1: Sf9 insect cells (baculovirus); Erb1: Escherichia coli (DE3) BL21 CodonPlus (RIPL)
T1 sequence (G0SFB5 1-495): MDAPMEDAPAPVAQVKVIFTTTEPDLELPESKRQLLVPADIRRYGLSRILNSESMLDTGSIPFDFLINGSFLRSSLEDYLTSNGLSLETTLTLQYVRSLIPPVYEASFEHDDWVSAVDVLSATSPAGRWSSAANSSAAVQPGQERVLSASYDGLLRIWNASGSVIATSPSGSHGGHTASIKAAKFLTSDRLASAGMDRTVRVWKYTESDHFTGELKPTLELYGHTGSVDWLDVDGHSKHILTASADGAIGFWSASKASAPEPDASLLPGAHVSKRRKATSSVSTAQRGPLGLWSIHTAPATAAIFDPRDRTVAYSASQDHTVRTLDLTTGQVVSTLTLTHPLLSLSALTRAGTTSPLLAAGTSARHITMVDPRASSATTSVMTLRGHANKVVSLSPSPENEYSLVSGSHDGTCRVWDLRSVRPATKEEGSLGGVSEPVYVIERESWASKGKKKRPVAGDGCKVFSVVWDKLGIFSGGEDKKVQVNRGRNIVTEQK

T2: Ytm1 (Thermochaetoides thermophila, UniProt G0SFB5)
T2 construct: 6xHis; made in house; host or cells: Sf9 insect cells (baculovirus)
T2 sequence (G0SFB5 1-495): T1 sequence (G0SFB5 1-495)

B1: Erb1 (Chaetomium thermophilum ribosome assembly factor) (natural protein, UniProt G0SCK6 1-801, looked up)
chain: MGSKIVEKKRKSRDSDSESDNELGDGLFDGVLSQSEDEEDYIPSSEVDEDDDDDADESASEDSDDSNDSEDDEVEEDDEALLSDEIPSEGESEKDQDLAESKESKQDQDKEPSEPEILEPFVDPPRKEDEELEDRNYRIEKDANGGIRYVYDEIDPVYDSDDTDYNVPVNTIGNIPLSFYDSYPHIGYDINGKKIMRPATGDALQNLLDSIEVPEGWTGLTDPNTGKPLNLSRDELELIRKVQQGLIPDDVEDPYPDTVEWFTSVEEKMPLSAAPEPKRRFIPSKNEAKQIMKLVRAIREGRILPYKPPEEREREELEKEEEFYDLWQNEEPQPPNPMHIPAPKLPPPGYDLSYNPPPEYLPTKEEREEWEKMDPEDREKDYLPTKYDSLRKVPAWGNFVKERFERCMDLYLAPRVRKNRLNIDPNSLLPKLPSPDELKPFPTVQQTIFRGHEGRVRSVAIDPTGVALATGGDDGTVRVWELLTGRQVWSVKLNGDEAVNTVRWRPTKDTFILAAAAGEDIFLMIPTHPSVTPALDQASRDILNAGFGHATNGKQQANLPPGKEPPGKWARPGTRLEDEGVLLRITVRSTIKAISWHRRGDHFATVSPSGQRSSVAIHTLSKHLTQIPFRKLNGLAQTASFHPLRPLFFVATQRSIRCYDLQKLELVKIVQPGAKWISSFDVHPGGDNLVVGSYDKRLLWHDLDLSNRPYKTMRFHTEAIRAVRFHKGGLPLFADASDDGSLQIFHGKVPNDQLENPTIVPVKMLKGHKVVNKLGVLDIDWHPREPWCVSAGADGTARLWM
notes: Erb1, Chaetomium thermophilum; cloned in pET28-NKI/LIC 6His/3C; Erb1 was held on Ni-NTA biosensors; source: E. coli (DE3) BL21 CodonPlus (RIPL), auto-induction, purified (Histrap-HP Ni, HiTrap Heparin, Superdex 200 SEC)
B2: Ytm1 (Chaetomium thermophilum ribosome assembly factor) (natural protein)
chain: T1 sequence (G0SFB5 1-495)
notes: Ytm1, Chaetomium thermophilum; YTM1 gene amplified from total cDNA and cloned in pOPIN-F; For MST, Ytm1 was labelled with the Red-NHS second-generation dye; source: Sf9 insect cells (baculovirus), purified (Histrap-HP Ni, Superdex 200 SEC)

Tests used:
Erb1/Ytm1 complex = biological target: T1, Erb1/Ytm1 complex; assay: Biolayer interferometry peptide interference assay, immobilized Erb1, Ytm1 analyte preincubated with P1-P3; type: binding, Chaetomium thermophilum; conditions: BLI, 5 µM Ytm1 preincubated with equimolar peptide, reference without peptide 1.724e-3
Description: Peptides were commercially obtained from Synpeptide Co., Ltd., Shanghai, China. All experiments have been made in triplicates and include control curves for bait and analyte only.
Potential interference peptide samples were evaluated by their ability to interfere the kinetics and affinity of the complex between Erb1 and Ytm1 as measured by Biolayer Interferometry (BLItz, Pall FortéBio Corp.) using Ni-NTA biosensors (FortéBio) and 50 mM HEPES, pH 7.5; 150 mM NaCl; 5% (v/v) glycerol; and 2 mM β-mercaptoethanol (BME) buffer. To set the reference KD, an 80 µg/ml solution of Erb1 was immobilized to the biosensor in order to obtain binding curves for increasing concentrations of Ytm1. According to this, an evaluation of Erb1-derived peptides (P1–P3) was performed using 5 µM Ytm1 previously incubated during 30 min at equimolar concentrations of each peptide. New KD values were determined. […]
Biolayer interferometry interference assays were used to evaluate the ability of each peptide to interfere in the in vitro formation of the Erb1/Ytm1 complex. […] Peptides were evaluated for their ability to decrease in the Erb1/Ytm1 complex formation by preincubating the analyte with each peptide derived from the immobilized partner. […] Erb1-derived peptides were evaluated by their ability to decrease Erb1/Ytm1 complex affinity. […]

Ytm1 [1] = biological target: T2, Ytm1; assay: Differential scanning fluorimetry (thermofluor) of Ytm1 with peptide; type: binding, Chaetomium thermophilum; conditions: DSF, SYPRO Orange 1:1,000; 5 µM Ytm1, 1 mM peptide; 50 mM HEPES pH 7.5, 150 mM NaCl; 20-85°C at 1°C/min; triplicates
Description: Thermofluor assays ([Pantoliano et al., 2001]) were performed on a 7,500 Fast Real-Time PCR System (Applied Biosystems) measuring the gradual fluorescence generated by a 1:1,000 dilution of SYPRO Orange Protein Stain Gel (Supelco, Merck-Sigma) along with 1°C/min temperature increase from 20°C until 85°C.
The samples were mixed containing the protein Ytm1 at 5 µM in 50 mM HEPES pH 7.5, 150 mM NaCl and peptides P1-P3 at 1 mM concentration. Previously, lyophilized P2 and P3 were resuspended in the same Ytm1 buffer and P1 was solubilized in 10 mM Tris (hydroxymethyl)-methylamine (Tris-HCl), pH 8.8 for P1. Data of triplicated experiments were analyzed using GraphPad Prism 5.01 software.

Ytm1 [2] = biological target: T2, Ytm1; assay: Microscale thermophoresis of labelled Ytm1 with peptide; type: binding, Chaetomium thermophilum; conditions: peptide at a maximum concentration of 1,580 µM, data quality did not allow fitting of KD
Description: Microscale thermophoresis (MST) was used to determine the binding affinity between Ytm1 and P1. Ytm1 was labeled with a Red-NHS second-generation dye kit (100 µl at 10 µM of protein +300 µM dye solution) for 30 min at room temperature in the dark. 5 nM of labeled Ytm1 in 50 mM HEPES pH 7.5, NaCl 150 mM supplemented with 0.1% (v/v) Pluronic F-127 was used for the assay. P1 stock is diluted in 10 mM Tris (hydroxymethyl)-methylamine (Tris-HCl), pH 8.8. Ytm1 and P1 were mixed at 1:1 molar ratio in sixteen serial dilutions (1,230 μM–0.0751 µM) using the same buffer. Measurements were taken on a Monolith NT.115 instrument (NanoTemper Technologies). Similarly biding between Ytm1 and P3 using MST was tested using the same Ytm1 buffer also for P3. Curve fitting and KD calculations every 10 min were analyzed from three independent experiments with MO. […] Curves were analyzed using Affinity Analysis Software (NanoTemper Technologies).

[3] = biological target: B2; assay: BLI; interference assay; Ytm1 (80 µg/ml) immobilised on Ni-NTA biosensor; 20 µM Erb1 preincubated with equimolar Ytm1-derived peptide (P4-P6) as analyte; 50 mM HEPES pH 7.5, 150 mM NaCl, 5% glycerol, 2 mM BME; conditions: both partners purified
[4] = biological target: B1; assay: BLI; BLItz; Ytm1 (80 µg/ml) immobilised on Ni-NTA biosensor, Erb1 as analyte; 50 mM HEPES pH 7.5, 150 mM NaCl, 5% glycerol, 2 mM BME; reference without peptide; conditions: both partners purified
[5] = biological target: B1; assay: BLI; BLItz; Erb1 (80 µg/ml) immobilised on Ni-NTA biosensor, increasing concentrations of Ytm1 as analyte; 50 mM HEPES pH 7.5, 150 mM NaCl, 5% glycerol, 2 mM BME; reference without peptide; conditions: both partners purified
[6] = biological target: B1; assay: BLI; interference assay; Erb1 (80 µg/ml) immobilised on Ni-NTA biosensor; 5 µM Ytm1 preincubated 30 min with equimolar Erb1-derived peptide (P1-P3) as analyte; 50 mM HEPES pH 7.5, 150 mM NaCl, 5% glycerol, 2 mM BME; conditions: both partners purified

With “DWHPREPWCV [Peptide P3, Erb1-derived peptide …, residues 780–789]” the “kd (1/s) of Erb1/Ytm1 binding after preincubation of Ytm1 with peptide” value (Erb1/Ytm1 complex) was 0.01238 s⁻¹, the “Thermal shift (Tm) of Ytm1 in the presence of peptide” value (Ytm1 [1]) was “did not show any significant thermal shift” and the “Binding to Ytm1 by MST (in words)” value (Ytm1 [2]) was “tendency toward binding”.

B1 was tested, and the “KD after preincubation of Erb1 with equimolar P6” value [3] was 2400 nM.

B2 was tested, and the Kd [4] was 229 nM, the Kd [5] was 32.3 nM and the “KD after preincubation of Ytm1 with equimolar P1” value [6] was 190 nM. For the same molecule, the “KD after preincubation of Ytm1 with equimolar P3” value [6] was 170 nM.
